The target in assay [1] is T1, IgE-Fc-B-cell receptor construct (3×FLAG tag-Cε2-Cε3-Cε4-EMPD-transmembrane-intracellular domain) on Edox … (Homo sapiens, UniProt P01854, strain).
T1 construct: Species is said only of the EMPD in general ('human EMPD'); also called EMPD-containing Fcε construct; Fcε; not shown: 3×FLAG, N-terminal, kept
Kind of assay: flow cytometry on cells; doxycycline-induced Edox cells, antibodies in graded concentrations, 30 min on ice in 2% BSA-PBS; detection with anti-human kappa light chain-FITC. Particulars: one partner purified. For orientation: In flow cytometry, cells or beads pass a laser one at a time.
Target sequence in this assay (P01854 429-546, change not shown): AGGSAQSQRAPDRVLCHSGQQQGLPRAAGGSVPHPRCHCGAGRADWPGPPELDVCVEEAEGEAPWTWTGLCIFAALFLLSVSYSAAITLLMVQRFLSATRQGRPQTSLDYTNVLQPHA

Assay [2] deals with T1, IgE-Fc-B-cell receptor construct …. The assay can be described thus: cell-based or functional assay.
Target sequence in this assay (P01854 whole entry, looked up, change not shown, the tested form may be a part): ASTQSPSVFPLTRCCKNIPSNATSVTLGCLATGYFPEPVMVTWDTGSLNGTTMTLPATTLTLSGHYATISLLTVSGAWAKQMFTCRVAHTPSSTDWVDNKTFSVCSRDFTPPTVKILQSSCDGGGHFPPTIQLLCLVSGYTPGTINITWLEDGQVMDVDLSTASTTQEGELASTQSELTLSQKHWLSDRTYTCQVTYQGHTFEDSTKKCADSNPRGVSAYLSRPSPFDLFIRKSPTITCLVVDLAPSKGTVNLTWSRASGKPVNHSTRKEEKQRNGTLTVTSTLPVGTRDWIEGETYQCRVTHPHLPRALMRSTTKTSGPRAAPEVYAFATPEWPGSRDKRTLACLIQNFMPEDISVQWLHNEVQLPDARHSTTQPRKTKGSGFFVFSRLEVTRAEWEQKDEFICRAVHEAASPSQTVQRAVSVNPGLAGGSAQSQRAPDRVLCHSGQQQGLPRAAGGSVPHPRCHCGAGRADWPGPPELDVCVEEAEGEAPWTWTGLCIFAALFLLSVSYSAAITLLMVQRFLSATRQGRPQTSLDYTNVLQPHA
Assay [3] has as its target T2, biotinylated EMPD-characteristic peptide (Homo sapiens, synthetic peptide of the …, biotin on the C-terminal lysine (K-biotin)).
T2 construct: added C-terminal lysine that carries the biotin; Held on streptavidin sensors or plates through the biotin; also called synthetic peptide ligand representing a section of the human EMPD; model peptide; source: synthetic peptide; bought: Fisher Scientific
T2 chain: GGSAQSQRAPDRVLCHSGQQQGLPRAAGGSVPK
Kind of assay: BLI; biotinylated EMPD peptide on streptavidin sensors (5 µg/mL); antibodies in two-fold dilutions from 250 nM; PBS with 1× Kinetics buffer, 25 °C; steady state value. As to conditions: both partners purified.

In assay [4] the target is T2, biotinylated EMPD-characteristic peptide. The assay can be described thus: ELISA; biotinylated EMPD peptide on streptavidin plate (30 nM); antibodies in 3-fold dilutions from 45 nM in 2% BSA-PBS, RT; detection with anti-human kappa chain-HRP. Particulars: both partners purified.

B1: ligelizumab (antibody, V domains shown)
VH: QVQLVQSGAEVMKPGSSVKVSCKASGYTFSWYWLEWVRQAPGHGLEWMGEIDPGTFTTNYNEKFKARVTFTADTSTSTAYMELSSLRSEDTAVYYCARFSHFSGSNYDYFDYWGQGTLVTVSS
VL: EIVMTQSPATLSVSPGERATLSCRASQSIGTNIHWYQQKPGQAPRLLIYYASESISGIPARFSGSGSGTEFTLTISSLQSEDFAVYYCQQSWSWPTTFGGGTKVEIK
notes: whole heavy chain, IgG1 format; whole light chain; IgG1; made in house; source: HEK293-6E, transfected, purified from supernatant (Protein A)
As for B1, the EC50 – broadly, the concentration at which the effect is half-maximal – in assay [1] was roughly 0.1 nM. In addition, in assay [2], the “decrease of surface Fcε (anti-FLAG staining, flow cytometry) on Edox cells after 4 h at 37 °C against incubation on ice” value (“decrease of surface Fcε” below) is greater than 80%.

B2: 15cl12, chimeric antibody with human constant domains (antibody, V domains shown)
VH: QIQLQQSGAELVKPGASVKLSCKASGYTFTSYDINWVRQRPERGLDWIGWIFPGDGSSKYNENFKGKATLTTDKSSNTAYIHLSRLTSEDSAVYFCARWGKTFDYWGQGTTLTVSS
VL: DIVMSQSPSSLAVSVGEKVTMSCKSSQSLLYSRDQKNYLAWFQQKPGQSPKLLIYWASARESGVPDRFTGSGSGTDFTLTITSLKTEDLAVYYCQQFYNYPRTFGGGTKLEIK
As to B2, binding in assay [3] was put at a Kd of 11 nM. In assay [1], this molecule yielded a concentration giving a half-maximal response (EC50) of 4 nM. Moreover, in assay [2], the “decrease of surface Fcε” value was greater than 80%.

B3: 15cl12_L328C coupled with MC-Val-Cit-PAB-MMAE (antibody-drug conjugate) (antibody, V domains shown)
VH: QIQLQQSGAELVKPGASVKLSCKASGYTFTSYDINWVRQRPERGLDWIGWIFPGDGSSKYNENFKGKATLTTDKSSNTAYIHLSRLTSEDSAVYFCARWGKTFDYWGQGTTLTVSS
VL: DIVMSQSPSSLAVSVGEKVTMSCKSSQSLLYSRDQKNYLAWFQQKPGQSPKLLIYWASARESGVPDRFTGSGSGTDFTLTITSLKTEDLAVYYCQQFYNYPRTFGGGTKLEIK
B3: in assay [3], the Kd – broadly, the free concentration of one partner at which half of the binding sites on the other are occupied at equilibrium, for simple one-to-one binding – was 7.5 nM. Besides, the EC50 in assay [1] was roughly 8 nM; in assay [4] it was 0.23 nM.

B4: quilizumab (antibody, V domains shown)
VH: EVQLVESGGGLVQPGGSLRLSCAASGFTFSDYGIAWVRQAPGKGLEWVAFISDLAYTIYYADTVTGRFTISRDNSKNTLYLQMNSLRAEDTAVYYCARDNWDAMDYWGQGTLVTVSS
VL: DIQMTQSPSSLSASVGDRVTITCRSSQSLVHNNANTYLHWYQQKPGKAPKLLIYKVSNRFSGVPSRFSGSGSGTDFTLTISSLQPEDFATYYCSQNTLVPWTFGQGTKVEIK
For the molecule B4, the “decrease of surface Fcε” value in assay [2] was roughly 70%.

These data come from article PMC10573690 (International Journal of Molecular Sciences, 2023).
